Experimental data published in the supplement of paper PMC9112550, “Optimization of the antimicrobial peptide Bac7 by deep mutational scanning” (BMC Biology, 2022).

Test system: Escherichia coli TOP10
Assay: shrunken log2 fold change of peptide-encoding DNA abundance (4.5 h post-induction vs induction); higher = less antimicrobial activity (less host growth inhibition)
Conditions: time post-induction: 4.5 h; library: site-saturation at positions 5, 18, 19, 20
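Note: peptides expressed intracellularly from a pBAD plasmid library in pooled LB shake-flask culture, induced with 0.3% L-arabinose, DNA abundance read by NGS, three biological replicates, DESeq2 with apeglm shrinkage.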

RRIRSRPPRLPRPRPRPHNSPRP
shrunken log2 fold change: -0.357

RRIRSRPPRLPRPRPRPHNWPRP
shrunken log2 fold change: -0.248

RRIRSRPPRLPRPRPRPHQGPRP
shrunken log2 fold change: 0.0275

RRIRSRPPRLPRPRPRPHQSPRP
shrunken log2 fold change: -0.198

RRIRSRPPRLPRPRPRPHRPPRP
shrunken log2 fold change: 0.0831

RRIRSRPPRLPRPRPRPHRSPRP
shrunken log2 fold change: -0.188

RRIRSRPPRLPRPRPRPHSSPRP
shrunken log2 fold change: 0.171

RRIRSRPPRLPRPRPRPHSYPRP
shrunken log2 fold change: -0.171

RRIRSRPPRLPRPRPRPHTHPRP
shrunken log2 fold change: -0.419

RRIRSRPPRLPRPRPRPHTRPRP
shrunken log2 fold change: -0.453

RRIRSRPPRLPRPRPRPHWAPRP
shrunken log2 fold change: -0.0673

RRIRSRPPRLPRPRPRPHWNPRP
shrunken log2 fold change: -0.429

RRIRSRPPRLPRPRPRPIACPRP
shrunken log2 fold change: 0.12

RRIRSRPPRLPRPRPRPIAHPRP
shrunken log2 fold change: -0.0401

RRIRSRPPRLPRPRPRPIARPRP
shrunken log2 fold change: 0.029

RRIRSRPPRLPRPRPRPIATPRP
shrunken log2 fold change: 0.344

RRIRSRPPRLPRPRPRPICQPRP
shrunken log2 fold change: -0.00676

RRIRSRPPRLPRPRPRPIDDPRP
shrunken log2 fold change: -0.00277

RRIRSRPPRLPRPRPRPIDVPRP
shrunken log2 fold change: -0.0081

RRIRSRPPRLPRPRPRPIERPRP
shrunken log2 fold change: -0.23

RRIRSRPPRLPRPRPRPIGDPRP
shrunken log2 fold change: 0.0153

RRIRSRPPRLPRPRPRPIGQPRP
shrunken log2 fold change: 0.0342

RRIRSRPPRLPRPRPRPIGVPRP
shrunken log2 fold change: 0.049

RRIRSRPPRLPRPRPRPIHEPRP
shrunken log2 fold change: -0.00691

RRIRSRPPRLPRPRPRPIHPPRP
shrunken log2 fold change: -0.0819

RRIRSRPPRLPRPRPRPIIHPRP
shrunken log2 fold change: -0.526

RRIRSRPPRLPRPRPRPIKGPRP
shrunken log2 fold change: -0.00753

RRIRSRPPRLPRPRPRPIKVPRP
shrunken log2 fold change: -0.181

RRIRSRPPRLPRPRPRPIMLPRP
shrunken log2 fold change: -0.156

RRIRSRPPRLPRPRPRPIMMPRP
shrunken log2 fold change: -0.0828

RRIRSRPPRLPRPRPRPINLPRP
shrunken log2 fold change: -0.00701

RRIRSRPPRLPRPRPRPIRAPRP
shrunken log2 fold change: 0.106

RRIRSRPPRLPRPRPRPIRDPRP
shrunken log2 fold change: 0.156

RRIRSRPPRLPRPRPRPIRKPRP
shrunken log2 fold change: 0.143

RRIRSRPPRLPRPRPRPITCPRP
shrunken log2 fold change: -0.286

RRIRSRPPRLPRPRPRPITLPRP
shrunken log2 fold change: -0.333

RRIRSRPPRLPRPRPRPITMPRP
shrunken log2 fold change: -0.639

RRIRSRPPRLPRPRPRPIVGPRP
shrunken log2 fold change: 0.0247

RRIRSRPPRLPRPRPRPIWYPRP
shrunken log2 fold change: -0.373

RRIRSRPPRLPRPRPRPIYIPRP
shrunken log2 fold change: -0.776

RRIRSRPPRLPRPRPRPIYKPRP
shrunken log2 fold change: -0.243

RRIRSRPPRLPRPRPRPIYTPRP
shrunken log2 fold change: -0.548

RRIRSRPPRLPRPRPRPKAEPRP
shrunken log2 fold change: 0.213

RRIRSRPPRLPRPRPRPKATPRP
shrunken log2 fold change: 0.7

RRIRSRPPRLPRPRPRPKDMPRP
shrunken log2 fold change: -0.123

RRIRSRPPRLPRPRPRPKDVPRP
shrunken log2 fold change: -0.162

RRIRSRPPRLPRPRPRPKGVPRP
shrunken log2 fold change: 0.0137

RRIRSRPPRLPRPRPRPKGYPRP
shrunken log2 fold change: 0.00982

RRIRSRPPRLPRPRPRPKIKPRP
shrunken log2 fold change: -0.346

RRIRSRPPRLPRPRPRPKKEPRP
shrunken log2 fold change: 0.00678

RRIRSRPPRLPRPRPRPKKFPRP
shrunken log2 fold change: -0.222

RRIRSRPPRLPRPRPRPKKGPRP
shrunken log2 fold change: 0.0379

RRIRSRPPRLPRPRPRPKKHPRP
shrunken log2 fold change: -0.0966

RRIRSRPPRLPRPRPRPKKQPRP
shrunken log2 fold change: 0.0417

RRIRSRPPRLPRPRPRPKKSPRP
shrunken log2 fold change: -0.0117

RRIRSRPPRLPRPRPRPKLLPRP
shrunken log2 fold change: 0.325

RRIRSRPPRLPRPRPRPKPEPRP
shrunken log2 fold change: -0.01

RRIRSRPPRLPRPRPRPKRNPRP
shrunken log2 fold change: 0.228

RRIRSRPPRLPRPRPRPKSHPRP
shrunken log2 fold change: -0.158

RRIRSRPPRLPRPRPRPKSTPRP
shrunken log2 fold change: -0.556

RRIRSRPPRLPRPRPRPKTDPRP
shrunken log2 fold change: 0.124

RRIRSRPPRLPRPRPRPKTYPRP
shrunken log2 fold change: -0.543

RRIRSRPPRLPRPRPRPKVGPRP
shrunken log2 fold change: 0.176

RRIRSRPPRLPRPRPRPKVHPRP
shrunken log2 fold change: -0.231

RRIRSRPPRLPRPRPRPKYKPRP
shrunken log2 fold change: -0.422

RRIRSRPPRLPRPRPRPLAQPRP
shrunken log2 fold change: 0.261

RRIRSRPPRLPRPRPRPLCYPRP
shrunken log2 fold change: -0.535

RRIRSRPPRLPRPRPRPLDHPRP
shrunken log2 fold change: 0.0458

RRIRSRPPRLPRPRPRPLDMPRP
shrunken log2 fold change: 0.0557

RRIRSRPPRLPRPRPRPLEHPRP
shrunken log2 fold change: 0.0173

RRIRSRPPRLPRPRPRPLESPRP
shrunken log2 fold change: 0.14

RRIRSRPPRLPRPRPRPLFEPRP
shrunken log2 fold change: -0.0159

RRIRSRPPRLPRPRPRPLGCPRP
shrunken log2 fold change: 0.285

RRIRSRPPRLPRPRPRPLGDPRP
shrunken log2 fold change: 0.0783

RRIRSRPPRLPRPRPRPLHKPRP
shrunken log2 fold change: 0.104

RRIRSRPPRLPRPRPRPLIPPRP
shrunken log2 fold change: -0.324

RRIRSRPPRLPRPRPRPLKQPRP
shrunken log2 fold change: -0.0432

RRIRSRPPRLPRPRPRPLMPPRP
shrunken log2 fold change: 0.121

RRIRSRPPRLPRPRPRPLNMPRP
shrunken log2 fold change: -0.316

RRIRSRPPRLPRPRPRPLPFPRP
shrunken log2 fold change: -0.588

RRIRSRPPRLPRPRPRPLQFPRP
shrunken log2 fold change: 0.0849

RRIRSRPPRLPRPRPRPLQSPRP
shrunken log2 fold change: 0.49

RRIRSRPPRLPRPRPRPLRGPRP
shrunken log2 fold change: 0.897

RRIRSRPPRLPRPRPRPLSFPRP
shrunken log2 fold change: -0.24

RRIRSRPPRLPRPRPRPLSSPRP
shrunken log2 fold change: -0.329

RRIRSRPPRLPRPRPRPLYHPRP
shrunken log2 fold change: -0.599

RRIRSRPPRLPRPRPRPMAKPRP
shrunken log2 fold change: 0.206

RRIRSRPPRLPRPRPRPMCMPRP
shrunken log2 fold change: -0.000628

RRIRSRPPRLPRPRPRPMEYPRP
shrunken log2 fold change: -0.00133

RRIRSRPPRLPRPRPRPMFHPRP
shrunken log2 fold change: -0.438

RRIRSRPPRLPRPRPRPMFTPRP
shrunken log2 fold change: -0.374

RRIRSRPPRLPRPRPRPMHSPRP
shrunken log2 fold change: -0.055

RRIRSRPPRLPRPRPRPMHYPRP
shrunken log2 fold change: -0.224

RRIRSRPPRLPRPRPRPMIPPRP
shrunken log2 fold change: -0.109

RRIRSRPPRLPRPRPRPMKLPRP
shrunken log2 fold change: -0.0255

RRIRSRPPRLPRPRPRPMKTPRP
shrunken log2 fold change: 0.0178

RRIRSRPPRLPRPRPRPMNDPRP
shrunken log2 fold change: -0.075

RRIRSRPPRLPRPRPRPMNEPRP
shrunken log2 fold change: -0.457

RRIRSRPPRLPRPRPRPMNWPRP
shrunken log2 fold change: -0.0283

RRIRSRPPRLPRPRPRPMQCPRP
shrunken log2 fold change: -0.0018

RRIRSRPPRLPRPRPRPMQMPRP
shrunken log2 fold change: 0.512

RRIRSRPPRLPRPRPRPMRIPRP
shrunken log2 fold change: 0.0732

RRIRSRPPRLPRPRPRPMSDPRP
shrunken log2 fold change: -0.195

RRIRSRPPRLPRPRPRPMSMPRP
shrunken log2 fold change: -0.293

RRIRSRPPRLPRPRPRPMSTPRP
shrunken log2 fold change: -0.13

RRIRSRPPRLPRPRPRPMTLPRP
shrunken log2 fold change: -0.103

RRIRSRPPRLPRPRPRPMWIPRP
shrunken log2 fold change: -0.0694

RRIRSRPPRLPRPRPRPMWNPRP
shrunken log2 fold change: -0.204

RRIRSRPPRLPRPRPRPMYFPRP
shrunken log2 fold change: -0.229
